The target in experiment [1] is T1, GST-RPN10 (residues 201–386), wild type (Arabidopsis thaliana, UniProt P55034 201-386).
T1 sequence (looked up): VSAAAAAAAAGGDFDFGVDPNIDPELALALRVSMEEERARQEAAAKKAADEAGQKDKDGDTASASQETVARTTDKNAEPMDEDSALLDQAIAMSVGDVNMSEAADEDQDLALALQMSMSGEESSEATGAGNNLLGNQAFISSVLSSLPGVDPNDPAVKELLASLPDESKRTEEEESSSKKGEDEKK
As to the kind of experiment: pull-down.

In experiment [2] the target is T1, GST-RPN10 (residues 201–386), wild type. As to the kind of experiment: pull-down. This is another data set of the same source.

B1: His6-ATG8f (natural protein, Arabidopsis thaliana, UniProt Q8VYK7 1-117, looked up)
chain: MAKSSFKQEHDLEKRRAEAARIREKYPDRIPVIVEKAEKSDIPTIDKKKYLVPADLTVGQFVYVIRKRIKLSAEKAIFIFVDNVLPPAGALMSSVYEEKKDDDGFLYVTYSGENTFG
Consider B1, for which the binding result in experiment [1] is “binds”.

B2: His6-ATG8e (natural protein, Arabidopsis thaliana, UniProt Q8S926 1-118, looked up)
chain: MNKGSIFKMDNDFEKRKAEAGRIREKYPDRIPVIVEKAEKSEVPNIDKKKYLVPSDLTVGQFVYVIRKRIKLSAEKAIFIFVDNVLPPTGELMSSVYEDKKDEDGFLYITYSGENTFG
As a reminder, the Kd is the constant that tells how readily two partners part at equilibrium. In experiment [2], B2 had a dissociation constant Kd of roughly 5.6 µM.

The values are drawn from publication PMC4903074 (Molecular cell, 2015).
